{
  "source": "patent US20150267232A1",
  "about": "“IN VIVO AND IN VITRO CARBENE INSERTION AND NITRENE TRANSFER REACTIONS CATALYZED BY HEME ENZYMES” (California Institute of Technology, priority 2012, published 2015)",
  "molecules": {"B1": {"name": "ABC: P450BM3 variant: C400S (protein, listed as Bacillus megaterium)", "chain": "TIKEMPQPKTFGELKNLPLLNTDKPVQALMKIADELGEIFKFEAPGRVTRYLSSQRLIKEACDESRFDKNLSQALKFVRDFAGDGLFTSWTHEKNWKKAHNILLPSFSQQAMKGYHAMMVDIAVQLVQKWERLNADEHIEVPEDMTRLTLDTIGLCGFNYRFNSFYRDQPHPFITSMVRALDEAMNKLQRANPDDPAYDENKRQFQEDIKVMNDLVDKIIADRKASGEQSDDLLTHMLNGKDPETGEPLDDENIRYQIITFLIAGHETTSGLLSFALYFLVKNPHVLQKAAEEAARVLVDPVPSYKQVKQLKYVGMVLNEALRLWPTAPAFSLYAKEDTVLGGEYPLEKGDELMVLIPQLHRDKTIWGDDVEEFRPERFENPSAIPQHAFKPFGNGQRASIGQQFALHEATLVLGMMLKHFDFEDHTNYELDIKETLTLKPEGFVVKAKSKKIPLGGIPSPSTEQSAKKVRKKAENAHNTPLLVLYGSNMGTAEGTARDLADIAMSKGFAPQVATLDSHAGNLPREGAVLIVTASYNGHPPDNAKQFVDWLDQASADEVKGVRYSVFGCGDKNWATTYQKVPAFIDETLAAKGAENIADRGEADASDDFEGTYEEWREHMWSDVAAYFNLDIENSEDNKSTLSLQFVDSAADMPLAKMHGAFSTNVVASKELQQPGSARSTRHLEIELPKEASYQEGDHLGVIPRNYEGIVNRVTARFGLDASQQIRLEAEEEKLAHLPLAKTVSVEELLQYVELQDPVTRTQLRAMAAKTVCPPHKVELEALLEKQAYKEQVLAKRLTMLELLEKYPACEMKFSEFIALLPSIRPRYYSISSSPRVDEKQASITVSVVSGEAWSGYGEYKGIASNYLAELQEGDTITCFISTPQSEFTLPKDPETPLIMVGPGTGVAPFRGFVQARKQLKEQGQSLGEAHLYFGCRSPHEDYLYQEELENAQSEGIITLHTAFSRMPNQPKTYVQHVMEQDGKKLIELLDQGAHFYICGDGSQMAPAVEATLMKSYADVHQVSEADARLWLQQLEEKGRYAKDVWAG", "modifications": "cytochrome P450NADPH-P-450 reductase precursor, cytochrome P450 (BM3), CYP102A1", "notes": "P450BM3 variant: C400S"}, "B2": {"name": "WT-AxH: WT heme domain + C400H (protein)", "chain": "TIKEMPQPKTFGELKNLPLLNTDKPVQALMKIADELGEIFKFEAPGRVTRYLSSQRLIKEACDESRFDKNLSQALKFVRDFAGDGLFTSWTHEKNWKKAHNILLPSFSQQAMKGYHAMMVDIAVQLVQKWERLNADEHIEVPEDMTRLTLDTIGLCGFNYRFNSFYRDQPHPFITSMVRALDEAMNKLQRANPDDPAYDENKRQFQEDIKVMNDLVDKIIADRKASGEQSDDLLTHMLNGKDPETGEPLDDENIRYQIITFLIAGHETTSGLLSFALYFLVKNPHVLQKAAEEAARVLVDPVPSYKQVKQLKYVGMVLNEALRLWPTAPAFSLYAKEDTVLGGEYPLEKGDELMVLIPQLHRDKTIWGDDVEEFRPERFENPSAIPQHAFKPFGNGQRAHIGQQFALHEATLVLGMMLKHFDFEDHTNYELDIKETLSLKPKGFVVKAKSKKIPLGGIPSPST", "modifications": "synthetic cytochrome P450-BM3 variant WT-AxH (heme)", "notes": "WT heme domain + C400H"}, "B3": {"name": "WT-AxK: WT heme domain + C400K (protein)", "chain": "B2 chain with H400K", "modifications": "synthetic cytochrome P450-BM3 variant WT-AxK (heme)", "notes": "WT heme domain + C400K"}, "B4": {"name": "WT-AxM: WT heme domain + C400M (protein)", "chain": "B2 chain with H400M", "modifications": "synthetic cytochrome P450-BM3 variant WT-AxM (heme)", "notes": "WT heme domain + C400M"}, "B5": {"name": "WT-AxN: WT heme domain + C400N (protein)", "chain": "B2 chain with H400N", "modifications": "synthetic cytochrome P450-BM3 variant WT-AxN (heme)", "notes": "WT heme domain + C400N"}},
  "key": {"[1]": {"assay": "Small-scale anaerobic C—H amination with purified enzymes, azide 1", "assay_type": "biochemical", "procedure": "Activities are presented in TTN. […] Yields and enantioselectivies determined by HPLC analysis. * (S−R)/(S+R). nd=not determined.\nEnzymes used as purified catalysts were expressed as previously described (Lewis, J. C. et al., Proc. Natl. Acad. Sci. U.S.A. 106, 16550-16555 (2009)), and were purified by anion-exchange chromatography (for holoenzymes) or Ni-NTA chromatography (for isolated heme domains). Concentrations of P450 or P411 enzymes were determined as previously reported (Omura, T. & Sato, R., J. Biol. Chem. 239, 2370-2378 (1964); Vatsis, K. P. et al., J. Inorg. Biochem. 91, 542-553 (2002)). Small-scale reactions (400 μL) were conducted in 2 mL crimp vials containing degassed buffer (0.1 M potassium phosphate pH 8.0), enzyme (0.1-0.5% catalyst loading) and oxygen depletion system (10× stock solution containing 14,000 U/mL catalase, 1,000 U/mL glucose oxidase dissolved in 0.1 M KPi pH 8.0). Enzyme (P450 or P411) solution and oxygen depletion mixture were added to the vial with a small stir bar before crimp-sealing. […] Reactions were stirred at room temperature for 24 h under positive argon pressure.\nSmall-scale reactions (400 μL) were conducted in 2 mL crimp vials (Agilent Technologies, San Diego, Calif.) containing buffer (0.1 M potassium phosphate pH 8.0), enzyme (0.1-0.5% catalyst loading) and oxygen depletion system (10× stock solution containing 14,000 U/mL catalase, 1,000 U/mL glucose oxidase dissolved in 0.1 M KPi pH 8.0). Enzyme (P450 or P411) solution and oxygen depletion mixture were added to the vial with a small stir bar before crimp-sealing. […] In the meantime, the headspace of the sealed 2 mL reaction vial with the P450 solution was made anaerobic by flushing argon over the protein solution (with no bubbling). The buffer/reductant/glucose solution (270 μL) was syringed into the reaction vial with continuous argon purge of the vial headspace. An arylsulfonyl azide solution in DMSO (10 μL, 80 mM) was added to the reaction vial via a glass syringe, and the reaction was left stirring for 24 h at room temperature under positive argon pressure. […] Reactions were quenched by adding 30 μL 3 M HCl under argon. To the vials were then added acetonitrile (430 uL) and internal standard (o-toluenesulfonamide 10 mM in 50% acetonitrile 50% water, 1 mM final concentration). This mixture was then transferred to a microcentrifuge tube, and centrifuged at 17,000×g for 10 minutes. A portion (20 μL) of the supernatant was then analyzed by HPLC. For LC-MS analysis, the quenched reaction mixture was extracted twice with ethyl acetate (2×350 μL), dried under a light argon stream and resuspended in 50% water-acetonitrile (100 μL). For chiral HPLC the reactions were extracted as above with ethyl acetate, dried and resuspended in DMSO (100 μL) and then C18 purified as described above. The C18 purified material was dried, and resuspended in acetonitrile, and then injected onto the chiral HPLC system for analysis. Sultam formation was quantified comparison of integrated peak areas of internal standard and sultam at 220 nm to a calibration curve made using synthetically produced sultam and internal standard.\nPurified enzymes were screened for activity in small scale reactions (400 μL) under anaerobic conditions as described above. Reactions were carried out using 0.5% mol of enzyme (10 μM) with respect to the triethylsulfonyl azide substrate 1 (2 mM). Standard reaction conditions described above were employed. Diethyl benzosultam product 3 (FIG. 18) was analyzed and quantified by reversed-phase HPLC (see above).\nSmall-scale reactions (400 μL total volume) were set up and worked up. Control reactions were performed with both the holoenzyme (BM3 with covalently linked reductase domain) and the isolated heme domain. […] Reactions of the complete system with heme domain (CS heme) included 2 mM Na2S2O4 rather than NADPH unless otherwise indicated in the table. […]"}, "[2]": {"assay": "Whole-cell C—H amination of azide 1", "assay_type": "cell-based, E. coli BL21(DE3)", "conditions": "intact E. coli cells", "procedure": "Reaction conditions were as follows: 2 mM azide 1, 25 mM glucose, E. coli BL21(DE3) cells in M9-N minimal medium (OD600=30), 2.5% DMSO, oxygen depletion system (100 U ml^−1 glucose oxidase, 1400 U ml^−1 catalase) reacted for 24 hours under anaerobic conditions at 298 K. Yields determined by HPLC quantification.\n(§1) Whole cell reactions used E. coli BL21(DE3) cells containing P450 or P411 catalysts, which were expressed and prepared as described elsewhere (Coelho, P. S. et al., Highly efficient carbene transfer to olefins catalyzed in vivo. Submitted (2013)). Following expression, cells were resuspended to an OD600 of 30 in M9 salts lacking NH4Cl (M9-N), and then degassed by sparging with argon in a sealed 6 mL crimp vial for at least 0.5 h. Separately, glucose (250 mM dissolved in 1×M9-N, 40 μL, or multiples thereof) was degassed by sparging with argon for at least five minutes. The oxygen quenching mixture was added to sealed 2 mL crimp vials containing stir bars and the headspace of the vials was purged with argon for five minutes at which time glucose, and then cells were added by syringe. Substrate (80 mM arylsulfonyl azide, 10 uL in DMSO) was added via syringe, and the reactions were stirred at room temperature for 24 h under positive argon pressure.\nas §1, with “E.” for “Whole cell reactions used E.”, “catalysts” for “catalysts, which”, “Coelho,” for “(Coelho,”, “μL” for “uL”, “pressure. Reactions were quenched in a manner identical to reactions containing purified enzymes as described above. For chiral HPLC, the reactions were extracted and purified in an identical manner as for reactions that employed purified enzymes. Lyophilized intact cells containing sucrose as a cryoprotectant were prepared as described elsewhere (Coelho, P. S. et al., Highly efficient carbene transfer to olefins catalyzed in vivo. Submitted (2013)). The resulting cell powder, containing expressed ABC-CIS (26 mg) were added along with a stir bar to a 2 mL crimp vial and then sealed. The headspace of the vial was degassed, oxygen quenching system (40 μL) was added via syringe, followed by degassed glucose (250 mM, 40 μL), M9-N (310 μL), and finally substrate (80 mM 1, 10 μL). Lyophilized cell reactions were stirred for 24 h at room temperature, then quenched and analyzed as described above. […]” for “pressure.”\nThe preparative reaction was scaled up proportionally from small-scale reactions. E. coli BL21 cells containing ABC-CIS (OD600 30, 90 mL in M9-N) were sparged with argon for 45 minutes in a round bottom flask (250 mL) containing a stir bar. Separately, glucose solution (250 mM, 11.6 mL) was sparged with argon in a conical flask. The oxygen quenching mixture (10×, 11.6 mL) was degassed in a conical flask that was placed under high vacuum until slight foaming occurred (1-2 s) and then back-filled with argon; this sequence was repeated several times. Sparged glucose solution was then added to the anaerobic cell suspension via syringe, followed by the oxygen quenching system. Finally, substrate 1 (80 mM, 2.9 mL DMSO) was added dropwise via syringe, and the reaction was stirred for 24 h at room temperature. To quench the reaction, dilute HCl (3 M, 8.7 mL) and acetonitrile (125 mL) were added. […]"}, "[3]": {"assay": "Intramolecular carbene C—H insertion, substrate 4.1a", "assay_type": "biochemical", "conditions": "10 mM 4.1a, 10 uM P450, 10 mM Na2S2O4; product 4.2a", "procedure": "Yield of product 4.22b was established after calibration with phenethyl alcohol as an internal standard. The reaction is not catalyzed by the WT-BM3 heme domain or hemin at 5% catalyst loading.\nA representative procedure for P450-catalyzed C—H insertion is as follows: A vial containing WT-AxD (20 μL, 200 μM) was sealed with a teflon cap and the headspace of this vial was purged with argon for 5 min. Concurrently, a solution of sodium dithionite (11 mM in phosphate buffer pH=8) was degassed for a minimum of 5 min and 360 μL of this solution was transferred to the vial containing protein. The gas lines were disconnected from the vials. The substrate 4.1a or 4.1b was then added as a solution (20 μL, 200 mM). Final concentrations of all components were: 10 uM enzyme, 10 mM substrate, and 10 mM dithionite. […]\nThe mixture was extracted with 1 mL cyclohexane and analyzed by GC-MS or GC. GC-MS was performed on a Shimadzu TQ8030 GC-MS with ion count detector and J&W HP-5 column (30 m×0.32 mm, 0.25 μm film) using the following method: 90° C. (hold 2 min), 90-190° C. (20° C./min), and 190-230 (40° C./min)"}, "[4]": {"conditions": "OD600=30, 2 mM azide 1, 24 hours, anaerobic"}},
  "note": "Positions count from the first letter of the chain named. Numbers in names are those of the source.",
  "data": [
    {"molecule": "B1", "values": [
      {"measurement": "TTN", "setting": "[1]; 0.1 mol % catalyst loading (2 μM), 2 mM azide 1, 2 mM NADPH, benzosultam 3", "result": 32},
      {"measurement": "% ee", "setting": "[1]; 0.1 mol % catalyst loading, (S−R)/(S+R), benzosultam 3", "result": 20, "unit": "%"},
      {"measurement": "TTN (C—H amination product 3)", "setting": "[1]; catalyst loading 0.5 mol %, NADPH, anaerobic", "result": 49},
      {"measurement": "Yield sulfonamide (%)", "setting": "[2]; [4]", "result": 80, "unit": "%"},
      {"measurement": "Yield sultam (%)", "setting": "[2]; [4]", "result": 6.7, "unit": "%"},
      {"measurement": "TTN", "setting": "[2]; anaerobic, added glucose", "result": 29},
      {"measurement": "% ee", "setting": "[2]; (S − R)/(S + R)", "result": 16, "unit": "%"}
    ]},
    {"molecule": "B2", "values": [
      {"measurement": "Yield %", "setting": "[3]", "result": 0, "unit": "%"}
    ]},
    {"molecule": "B3", "values": [
      {"measurement": "Yield %", "setting": "[3]", "result": 0, "unit": "%"}
    ]},
    {"molecule": "B4", "values": [
      {"measurement": "Yield %", "setting": "[3]", "result": 0, "unit": "%"}
    ]},
    {"molecule": "B5", "values": [
      {"measurement": "Yield %", "setting": "[3]", "result": 0, "unit": "%"}
    ]}
  ]
}
